Assay results from the supplement of paper PMC11246515.
± gives the standard deviation of the averaged measurements.

Assay: total protein half-life in vivo (active degradation + dilution); higher = more stable protein
[1] = E. coli NCM3722 delta-clpP delta-lon delta-hslV, growth: N-lim chemostat, doubling time 6 h
[2] = E. coli NCM3722 delta-clpP, growth: N-lim chemostat, doubling time 6 h
[3] = E. coli NCM3722 delta-hslV, growth: N-lim chemostat, doubling time 6 h
[4] = E. coli NCM3722 delta-lon, growth: N-lim chemostat, doubling time 6 h
[5] = E. coli NCM3722 delta-smpB, growth: N-lim chemostat, doubling time 6 h
[6] = wild type E. coli NCM3722, growth: C-lim chemostat, doubling time 3 h
[7] = wild type E. coli NCM3722, growth: C-lim chemostat, doubling time 6 h
[8] = wild type E. coli NCM3722, growth: C-lim chemostat, doubling time 12 h
[9] = wild type E. coli NCM3722, growth: N-lim chemostat, doubling time 6 h
[10] = wild type E. coli NCM3722, growth: N-lim chemostat, doubling time 12 h
[11] = wild type E. coli NCM3722, growth: P-lim chemostat, doubling time 6 h
[12] = wild type E. coli NCM3722, growth: P-lim chemostat, doubling time 12 h

Sequence | total protein half-life in vivo [1] [h] | total protein half-life in vivo [2] [h] | total protein half-life in vivo [3] [h] | total protein half-life in vivo [4] [h] | total protein half-life in vivo [5] [h] | total protein half-life in vivo [6] [h] | total protein half-life in vivo [7] [h] | total protein half-life in vivo [8] [h] | total protein half-life in vivo [9] [h] | total protein half-life in vivo [10] [h] | total protein half-life in vivo [11] [h] | total protein half-life in vivo [12] [h]
MMEGQQHGEQLKRGLKNRHIQLIALGGAIGTGLFLGSASVIQSAGPGIILGYAIAGFIAFLIMRQLGEMVVEEPVAGSFSHFAYKYWGSFAGFASGWNYWVLYVLVAMAELTAVGKYIQFWYPEIPTWVSAAVFFVVINAINLTNVKVFGEMEFWFAIIKVIAVVAMIIFGGWLLFSGNGGPQATVSNLWDQGGFLPHGFTGLVMMMAIIMFSFGGLELVGITAAEADNPEQSIPKATNQVIYRILIFYIGSLAVLLSLMPWTRVTADTSPFVLIFHELGDTFVANALNIVVLTAALSVYNSCVYCNSRMLFGLAQQGNAPKALASVDKRGVPVNTILVSALVTALCVLINYLAPESAFGLLMALVVSALVINWAMISLAHMKFRRAKQEQGVVTRFPALLYPLGNWICLLFMAAVLVIMLMTPGMAISVYLIPVWLIVLGIGYLFKEKTAKAVKAH | 5.89 ± 0.35 | 4.94 ± 0.16 | 5.65 | 4.684 ± 0.041 | 5.14 ± 0.68 | 2.98 | 5.81 ± 0.44 | 11.914 ± 0.0083 | 5.68 ± 1.1 | 9.07 ± 0.36 | 5.39 ± 0.41 | 10.1 ± 1.7
MNAVTVNDDGLVLRLYIQPKASRDSIVGLHGDEVKVAITAPPVDGQANSHLVKFLGKQFRVAKSQVVIEKGELGRHKQIKIINPQQIPPEIAALIN | 5.38 ± 0.38 | 4 ± 0.27 | 4.49 | 5.14 | 4.22 | 2.88 ± 0.76 | 5.35 | 8.02 | 3.58 | 6.29 ± 0.45 | 4.68 ± 0.4 | 8.89 ± 0.44
MNDLFSLAGKNILITGSAQGIGFLLATGLGKYGAQIIINDITAERAELAVEKLHQEGIQAVAAPFNVTHKHEIDAAVEHIEKDIGPIDVLVNNAGIQRRHPFTEFPEQEWNDVIAVNQTAVFLVSQAVTRHMVERKAGKVINICSMQSELGRDTITPYAASKGAVKMLTRGMCVELARHNIQVNGIAPGYFKTEMTKALVEDEAFTAWLCKRTPAARWGDPQELIGAAVFLSSKASDFVNGHLLFVDGGMLVAV [P0A9P9] | 7.23 | 3.69 | 2.75 | – | 2.46 | 2.53 ± 0.38 | 4.78 ± 0.49 | 7.912 ± 0.017 | 3.01 | – | 4.98 ± 0.91 | 6.82 ± 0.6
MFKSFFPKPGTFFLSAFVWALIAVIFWQAGGGDWVARITGASGQIPISAARFWSLDFLIFYAYYIVCVGLFALFWFIYSPHRWQYWSILGTALIIFVTWFLVEVGVAVNAWYAPFYDLIQTALSSPHKVTIEQFYREVGVFLGIALIAVVISVLNNFFVSHYVFRWRTAMNEYYMANWQQLRHIEGAAQRVQEDTMRFASTLENMGVSFINAIMTLIAFLPVLVTLSAHVPELPIIGHIPYGLVIAAIVWSLMGTGLLAVVGIKLPGLEFKNQRVEAAYRKELVYGEDDATRATPPTVRELFSAVRKNYFRLYFHYMYFNIARILYLQVDNVFGLFLLFPSIVAGTITLGLMTQITNVFGQVRGAFQYLINSWTTLVELMSIYKRLRSFEHELDGDKIQEVTHTLS [P0AFY6] | 5.51 ± 0.24 | 5.35 ± 0.061 | 5.4 ± 0.62 | 5.41 ± 0.43 | 5.52 ± 0.15 | – | 4.97 ± 1.2 | 11.3 ± 1.3 | – | 8.73 ± 0.38 | 5.77 ± 0.34 | –
MTQANLSETLFKPRFKHPETSTLVRRFNHGAQPPVQSALDGKTIPHWYRMINRLMWIWRGIDPREILDVQARIVMSDAERTDDDLYDTVIGYRGGNWIYEWATQAMVWQQKACAEDDPQLSGRHWLHAATLYNIAAYPHLKGDDLAEQAQALSNRAYEEAAQRLPGTMRQMEFTVPGGAPITGFLHMPKGDGPFPTVLMCGGLDAMQTDYYSLYERYFAPRGIAMLTIDMPSVGFSSKWKLTQDSSLLHQHVLKALPNVPWVDHTRVAAFGFRFGANVAVRLAYLESPRLKAVACLGPVVHTLLSDFKCQQQVPEMYLDVLASRLGMHDASDEALRVELNRYSLKVQGLLGRRCPTPMLSGYWKNDPFSPEEDSRLITSSSADGKLLEIPFNPVYRNFDKGLQEITDWIEKRLC | 5.5 ± 0.92 | 5.97 ± 1.6 | 3.64 ± 0.2 | 3.85 ± 0.3 | 3.78 ± 0.053 | 2.32 ± 0.07 | 3.76 ± 0.11 | 4.98 ± 0.59 | 3.52 ± 0.098 | 5.5 ± 0.077 | 4.41 ± 0.33 | 7.49 ± 0.46
MSTQYETQGYTINNAGRRLVVDPITRIEGHMRCEVNINDQNVITNAVSCGTMFRGLEIILQGRDPRDAWAFVERICGVCTGVHALASVYAIEDAIGIKVPDNANIIRNIMLATLWCHDHLVHFYQLAGMDWIDVLDALKADPRKTSELAQSLSSWPKSSPGYFFDVQNRLKKFVEGGQLGIFRNGYWGHPQYKLPPEANLMGFAHYLEALDFQREIVKIHAVFGGKNPHPNWIVGGMPCAINIDESGAVGAVNMERLNLVQSIITRTADFINNVMIPDALAIGQFNKPWSEIGTGLSDKCVLSYGAFPDIANDFGEKSLLMPGGAVINGDFNNVLPVDLVDPQQVQEFVDHAWYRYPNDQVGRHPFDGITDPWYNPGDVKGSDTNIQQLNEQERYSWIKAPRWRGNAMEVGPLARTLIAYHKGDAATVESVDRMMSALNLPLSGIQSTLGRILCRAHEAQWAAGKLQYFFDKLMTNLKNGNLATASTEKWEPATWPTECRGVGFTEAPRGALGHWAAIRDGKIDLYQCVVPTTWNASPRDPKGQIGAYEAALMNTKMAIPEQPLEILRTLHSFDPCLACSTHVLGDDGSELISVQVR [P0ACD8] | 4.51 ± 0.84 | – | – | – | – | – | – | – | – | – | – | –
